The supplement of paper PMC10201428
± gives the standard deviation of the averaged measurements.

Assays:
[1] = tested on: VchCAST RNA-guided transposition machinery (E. coli BL21(DE3) host, lacZ target); test: relative integration efficiency (T-LR orientation) vs wild-type transposon end (log2 (normalized fold change)); transposon end mutated: right end (5 bp flank + 75 bp right end); higher = more efficient transposition
Method: (§1)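 Pooled, barcoded VchCAST (Tn6677) mini-transposon donor libraries; each variable transposon-end sequence sits in a fixed pDonor mini-transposon context (10-bp barcode and cargo not included). Left- or right-end libraries were co-transformed with pEffector (TniQ-Cascade, TnsABC, lacZ crRNA, T7, 0.1 mM IPTG) into E. coli BL21(DE3) and grown 18 h at 37 C. T-LR and T-RL junction amplicons were sequenced; output/input barcode fold change was normalised to the mean of four wild-type barcodes and log2-transformed. Two biological replicates; zero-count/undetected variants carry floor values (-10 / -15), censored here. Barcode uncoupling by PCR recombination adds noise.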

[2] = tested on: VchCAST RNA-guided transposition machinery (E. coli BL21(DE3) host, lacZ target); test: relative integration efficiency (T-RL orientation) vs wild-type transposon end (log2 (normalized fold change)); transposon end mutated: right end (5 bp flank + 75 bp right end); higher = more efficient transposition
Method: as §1

| Sequence | relative integration efficiency (log2) [1] | relative integration efficiency (log2) [2] |
| --- | --- | --- |
| AACGGTGTTGATACAACCATAAAATGATAATTACACCCATAAATTGATAATTATCACACCCATAAATTGATATTGCCTCTGATCATAGTCAGACCAACATTGCTACGACCCGTATTCGCACCGACAC | 0.221 ± 0.4 | -0.153 ± 0.0083 |
| AACTTTGTTGATACAACCATAAAATGATAATTACACCCATAAATTGATAATTATCACACCCATAAATTGATATTGCCTCTGATCATAGTCAGACCAACATTGCTACGACCCGTATTCGCACCGACAC | 0.0855 ± 0.25 | -0.217 ± 0.078 |
| ACAAATGTTGATACAACCATAAAATGATAATTACACCCATAAATTGATAATTATCACACCCATAAATTGATATTGCCTCTGATCATAGTCAGACCAACATTGCTACGACCCGTATTCGCACCGACAC | 0.224 ± 0.075 | 0.215 ± 0.12 |
| ACAGGTGTTGATACAACCATAAAATGATAATTACACCCATAAATTGATAATTATCACACCCATAAATTGATATTGCCTCTGATCATAGTCAGACCAACATTGCTACGACCCGTATTCGCACCGACAC | -0.1 ± 0.25 | -0.284 ± 0.012 |
| ACATAAGTTGATACAACCATAAAATGATAATTACACCCATAAATTGATAATTATCACACCCATAAATTGATATTGCCTCTGATCATAGTCAGACCAACATTGCTACGACCCGTATTCGCACCGACAC | -4.25 ± 0.29 | -6.621 ± 0.045 |
| ACATGGGTTGATACAACCATAAAATGATAATTACACCCATAAATTGATAATTATCACACCCATAAATTGATATTGCCTCTGATCATAGTCAGACCAACATTGCTACGACCCGTATTCGCACCGACAC | -5.51 ± 0.64 | -6.44 ± 0.3 |
| ACATTACAAGATACAACCATAAAATGATAATTACACCCATAAATTGATAATTATCACACCCATAAATTGATATTGCCTCTGATCATAGTCAGACCAACATTGCTACGACCCGTATTCGCACCGACAC | -4.65 ± 0.93 | -5.91 ± 0.056 |
| ACATTAGTCGATACAACCATAAAATGATAATTACACCCATAAATGGATAATTATCACACCCAATTTAACTATAACGCTCTGATCATAGTCAGACCAACATTGCTACGACCCGTATTCGCACCGACAC | -5.29 ± 1.4 | -6.76 ± 0.26 |
| ACATTAGTCGATACAACCATAAAATGATAATTACACCCATAAATGGATCATTATCACACCCAATTTAACTATAACGCTCTGATCATAGTCAGACCAACATTGCTACGACCCGTATTCGCACCGACAC | -5.41 ± 0.28 | -8.21 ± 0.66 |
| ACATTAGTCGATACAACCATAAAATGATAATTACACCCATAAATTCATCATTATCACACCCAATTTAACTATAACGCTCTGATCATAGTCAGACCAACATTGCTACGACCCGTATTCGCACCGACAC | -6.06 ± 1.4 | -7.32 ± 0.43 |
| ACATTAGTCGATACAACCATAAAATGATAATTACACCCATAAATTGATAATTATCACACCCAATTTAACTATAACGCTCTGATCATAGTCAGACCAACATTGCTACGACCCGTATTCGCACCGACAC | -5.9 ± 1.5 | -7.53 ± 1.2 |
| ACATTAGTCGATACAACCATAAAATGATAATTACACCCATAAATTGATCATTATCACACCCAATTTAACTATAACGCTCTGATCATAGTCAGACCAACATTGCTACGACCCGTATTCGCACCGACAC | -3.34 ± 1 | -7.26 ± 0.69 |
| ACATTAGTGGATACAACCATAAAATGATAATTACACCCATAAATGGATAATTATCACACCCAATTTAACTATAACGCTCTGATCATAGTCAGACCAACATTGCTACGACCCGTATTCGCACCGACAC | -5.46 ± 0.48 | -7.08 ± 1.1 |
| ACATTAGTGGATACAACCATAAAATGATAATTACACCCATAAATTCATAATTATCACACCCAATTTAACTATAACGCTCTGATCATAGTCAGACCAACATTGCTACGACCCGTATTCGCACCGACAC | -5.23 ± 1.8 | -7.6 ± 0.5 |
| ACATTAGTGGATACAACCATAAAATGATAATTACACCCATAAATTCATCATTATCACACCCAATTTAACTATAACGCTCTGATCATAGTCAGACCAACATTGCTACGACCCGTATTCGCACCGACAC | -4.73 ± 0.58 | -7.21 ± 0.51 |
| ACATTAGTGGATACAACCATAAAATGATAATTACACCCATAAATTGATAATTATCACACCCAATTTAACTATAACGCTCTGATCATAGTCAGACCAACATTGCTACGACCCGTATTCGCACCGACAC | -3.09 ± 0.75 | -5.98 ± 0.27 |
| ACATTAGTGGATACAACCATAAAATGATAATTACACCCATAAATTGATCATTATCACACCCAATTTAACTATAACGCTCTGATCATAGTCAGACCAACATTGCTACGACCCGTATTCGCACCGACAC | -5.22 ± 1.2 | -7.5 ± 0.15 |
| ACATTAGTTCATACAACCATAAAATGATAATTACACCCATAAATGGATAATTATCACACCCAATTTAACTATAACGCTCTGATCATAGTCAGACCAACATTGCTACGACCCGTATTCGCACCGACAC | -3.62 ± 0.12 | -6.74 ± 0.15 |

| Sequence | relative integration efficiency (log2) [1] | relative integration efficiency (log2) [2] |
| --- | --- | --- |
| ACATTAGTTCATACAACCATAAAATGATAATTACACCCATAAATGGATCATTATCACACCCAATTTAACTATAACGCTCTGATCATAGTCAGACCAACATTGCTACGACCCGTATTCGCACCGACAC | -7.73 ± 1.7 | -7.359 ± 0.025 |
| ACATTAGTTCATACAACCATAAAATGATAATTACACCCATAAATTCATCATTATCACACCCAATTTAACTATAACGCTCTGATCATAGTCAGACCAACATTGCTACGACCCGTATTCGCACCGACAC | -5.32 ± 0.75 | -7.69 ± 0.13 |
| ACATTAGTTGATACAACCATAAAATGATAATTACACCCATAAATGGATAATTATCACACCCAATTTAACTATAACGCTCTGATCATAGTCAGACCAACATTGCTACGACCCGTATTCGCACCGACAC | -4.68 ± 1.3 | -6.45 ± 0.32 |
| ACATTAGTTGATACAACCATAAAATGATAATTACACCCATAAATGGATCATTATCACACCCAATTTAACTATAACGCTCTGATCATAGTCAGACCAACATTGCTACGACCCGTATTCGCACCGACAC | -4.72 ± 0.67 | -6.02 ± 0.2 |
| ACATTAGTTGATACAACCATAAAATGATAATTACACCCATAAATTCATAATTATCACACCCAATTTAACTATAACGCTCTGATCATAGTCAGACCAACATTGCTACGACCCGTATTCGCACCGACAC | -4.45 ± 0.066 | -6.87 ± 0.4 |
| ACATTAGTTGATACAACCATAAAATGATAATTACACCCATAAATTCATCATTATCACACCCAATTTAACTATAACGCTCTGATCATAGTCAGACCAACATTGCTACGACCCGTATTCGCACCGACAC | -4.99 ± 0.51 | -7.83 ± 0.12 |
| ACATTTGTTGATACCCAACGCCCCGTCGCCGGCACAAACGCCCGGTCGCCGGCGACACAAACGCCCGGTCGCGGTAAGAGGATCATAGTCAGACCAACATTGCTACGACCCGTATTCGCACCGACAC |  | -6.49 ± 0.44 |
| ACATTTGTTGATAGTTGGTATTTTACTATTAATCACCCATAAATTGATAATTATCACACCCATAAATTGATATTGCCTCTGATCATAGTCAGACCAACATTGCTACGACCCGTATTCGCACCGACAC |  | -7.24 ± 1 |
| ACATTTGTTGATATAATTATCATTTTATGGTTGCAACCATAAAATGATAATTATCATAATTATCATTTTATGGTTGCTCTGATCATAGTCAGACCAACATTGCTACGACCCGTATTCGCACCGACAC |  | -2.78 ± 0.3 |
| ACATTTGTTGATATAATTATCATTTTATGGTTGTAATTATCATTTTATGGTTGTCACAACCATAAAATGATAATTACTCTGATCATAGTCAGACCAACATTGCTACGACCCGTATTCGCACCGACAC |  | -6.264 ± 0.019 |
| ACATTTGTTGATATGTCAACCATAAAATGATAATTACACCCATAAATTGATAATTATCACACCCATAAATTGATATTGCCTCTGATCATAGTCAGACCAACATTGCTACGACCCGTATTCGCACCGA |  | -2.13 ± 0.23 |
| ACATTTGTTGATATGTTGCAACCATAAAATGATAATTACACCCATAAATTGATAATTATCACACCCATAAATTGATATTGCCTCTGATCATAGTCAGACCAACATTGCTACGACCCGTATTCGCACC |  | -6.84 ± 0.38 |
| ACATTTGTTGATGCAACCATAAAATGATAATTAATAATTATTTATAATCAGCAACTTAACCACAAAACACCCATAAATTGATAATTAACAAAACACCCATAAATTGATATTGCCTCTGATCATAGTC |  | -4.62 ± 0.92 |
| ACATTTGTTGATGCAACCATAAAGTGATATTTAATAATTATTTATAATCAGCAACTTAACCACAAAACAACCATATATTGATATCTCACAAAACAACCATAAGTTGATATTTTCTCTGATCATAGTC | < -10 |  |
| ACATTTGTTGCAACCATAAAATGATAATTACACCCATAAATTGATAATTATCACACCCATAAATTGATATTGCCTCTGATCATAGTCAGACCAACATTGCTACGACCCGTATTCGCACCGACACTGA |  | -7.1 ± 0.91 |
| CAAAATGTAAAAAAAACCATACGTTGATTTTACGAAACCATACGCTGAAATAAAAACAACCATACCTTGAAATTGCTTATAAAGTGTACAACACTTGAGAAAGTTTACTACAGGTATGCACCGACAC | < -10 |  |
| CAAAATGTTGATAAAACCATACGTTGATTTTACGAAACCATACGCTGAAATAAAAACAACCATACCTTGAAATTGCTTATAAAGTGTACAACACTTGAGAAAGTTTACTACAGGTATGCACCGACAC |  | -9.08 ± 1.1 |
